kcat, Km and kcat/Km data for 1 protein are collected here from patent US5780025A, “Compositions and methods for the synthesis and assay of enkephalinase” (Genentech, Inc., priority 1993, dated 1998).

What all share (assay): Fluorometric determination of kinetic parameters for hydrolysis of substrates by enkephalinase
Format in all cases: biochemical, rat

Substrate in data set [1]: CC(=O)NCC(=O)N[C@@H](Cc1c[nH]c2ccccc12)C(=O)NCC(=O)O
To be noted: other: peptides I and II: HPLC analysis of 1 hr incubations of 1 mM peptide with 200 ng (I) or 50 ng (II) enzyme; pH 7.4; 37.0 °C. On the procedure: (§1) Fluorescence measurements were made using a Perkin Elmer, model 650-10S spectrofluorometer, equipped with a temperature controlled cell-holder, maintained at 37° C. Two procedures were used. The first combined a 50 μl solution of dansylated peptide with 50 μl of purified rat kidney enkephalinase in 50 mM, pH 7.4 HEPES buffer, containing 0.1% Tween 20, yielding a substrate concentration from 1 μM to 1 mM. After 1 hour at 37° C., 500 μl of 0.1M EDTA were added to the tubes. The 600 μl mixture was transferred into a quartz cuvette, and fluorescence measured. For dansyl-Gly-Trp-Gly, the excitation wavelength was set at 280 nm and emission at 360 nm. For the two tyrosine containing peptides, the excitation wavelength was at 277 nm and emission at 315 nm. Both slits were set at 2 nm. Known amounts of Trp-Gly and Tyr-Gly, diluted in the same mixture (100 μl HEPES, Tween 20, 500 μl EDTA), were run in parallel as standards. The fluorescence in the incubation media could thus be related to the amounts of hydrolyzed substrates. The second procedure permitted continuous monitoring of the hydrolysis of the dansylated peptides. A 500 μl solution of substrate at appropriate concentration, in 50 mM, pH 7.4 HEPES buffer containing 0.1% Tween 20 was pipetted in a quartz cuvette, and allowed to equilibrate in the cell holder of the fluorimeter at 37° C. Ten μl of purified rat kidney enkephalinase was added and the increase in tryptophan or tyrosine fluorescence was continuously monitored (excitation=280 nm, emission=360 nm for tryptophan, excitation 277, emission 315 for tyrosine). To minimize oxidation of tryptophan the intensity of excitation was reduced by adjusting the fluorimeter shutter so that a 10^-4 M solution of tryptophan in water gave a fluorescence of 20.0 with excitation set at 280 nm, emission at 360 nm, both slits at 2 nm, and sensitivity at 0.1. Under these conditions, tryptophan fluorescence was stable for over 2 hr.
(§2) The kinetic parameters for the hydrolysis of dansyl-Gly-Trp-Gly, dansyl-Gly-Tyr-Gly and Dansyl-Gly-Tyr-Gly-NH2 by purified rat kidney enkephalinase were measured by incubating increasing concentrations of the substrates with the enzyme and stopping the reaction by the addition of EDTA before fluorescence measurements were taken (Table 4).
(§3) Km and kcat values for substrates III, IV and V were obtained by measuring the increase in tryptophan or tyrosine fluorescence after 1 hr. incubations of increasing concentrations of substrates (from 1 μM to 1 mM) with 1 ng purified enzyme at 37° C. The kcat values for these substrates and peptides I and II were also obtained by HPLC analysis of 1 hr. incubations of 1 mM peptides with 200 ng (substrate I), 50 ng (substrates II and V), or 10 ng (substrates III and IV) enzyme. The kcat values obtained by both methods for substrates III, IV and V were in close agreement.

Substrate in data set [2]: CN(C)c1cccc2c(S(=O)(=O)NCC(=O)N[C@@H](Cc3c[nH]c4ccccc34)C(=O)NCC(=O)O)cccc12
To be noted: other: fluorescence after 1 hr incubation, 1 μM to 1 mM substrate, 1 ng purified enzyme, 37° C., pH 7.4. The procedure: as §1, §2, §3

Substrate in data set [3]: CN(C)c1cccc2c(S(=O)(=O)NCC(=O)N[C@@H](Cc3ccc(O)cc3)C(=O)NCC(=O)O)cccc12
The settings on record: other: fluorescence after 1 hr incubation, 1 μM to 1 mM substrate, 1 ng purified enzyme, 37° C., pH 7.4. The procedure: as §1, §2, §3

Substrate in data set [4]: CN(C)c1cccc2c(S(=O)(=O)NCC(=O)N[C@@H](Cc3ccc(O)cc3)C(=O)NCC(N)=O)cccc12
The settings on record: other: fluorescence after 1 hr incubation, 1 μM to 1 mM substrate, 1 ng purified enzyme, 37° C., pH 7.4. On the procedure:
as §1, §2, §3

Substrate in data set [5]: NCC(=O)N[C@@H](Cc1c[nH]c2ccccc12)C(=O)NCC(=O)O
To be noted: other: peptides I and II: HPLC analysis of 1 hr incubations of 1 mM peptide with 200 ng (I) or 50 ng (II) enzyme; pH 7.4; 37.0 °C. The procedure:
as §1, §2, §3

B1: purified rat kidney enkephalinase (Rattus norvegicus) (protein)
chain: MGRSESQMDITDINAPKPKKKQRWTPLEISLSVLVLLLTIIAVTMIALYATYDDGICKSSDCIKSAARLIQNMDASAEPCTDFFKYACGGWLKRNVIPETSSRYSNFDILRDELEVILKDVLQEPKTEDIVAVQKAKTLYRSCINESAIDSRGGQPLLTLLPDIYGWPVASQNWEQTYGTSWTAEKSIAQLNSKYGKKVLINFFVGTDDKNSTQHIIHFDQPRLGLPSRDYYECTGIYKEACTAYVDFMISVARLIRQEQRLPIDENQLSLEMNKVMELEKEIANATTKPEDRNDPMLLYNKMTLAKLQNNFSLEINGKPFSWSNFTNEIMSTVNINIQNEEEVVVYAPEYLTKLKPILTKYSPRDLQNLMSWRFIMDLVSSLSRNYKESRNAFRKALYGTTSETATWRRCANYVNGNMENAVGRLYVEAAFAGESKHVVEDLIAQIREVFIQTLDDLTWMDAETKKKAEEKALAIKERIGYPDDIISNENKLNNEYLELNYKEEEYFENIIQNLKFSQSKQLKKLREKVDKDEWISGAAVVNAFYSSGRNQIVFPAGILQPPFFSARQSNSLNYGGIGMVIGHEITHGFDDNGRNFNKDGDLVDWWTQQSANNFKDQSQCMVYQYGNFTWDLAGGQHLNGINTLGENIADNGGIGQAYRAYQNYVKKNGEEKLLPGLDLNHKQLFFLNFAQVWCGTYRPEYAVNSIKTDVHSPGNFRIIGTLQNSAEFADAFHCRKNSYMNPERKCRVW
notes: Rat kidney enkephalinase was purified to apparent homogeneity; from tissue; host or cells: rat kidney (male rats, membrane fraction, Triton X-100 solubilised)
In general, kcat refers to the number of substrate molecules converted per active site and unit of time at saturation. Broadly, the Km is the concentration of substrate that gives half-maximal velocity. By kcat/Km is commonly meant the second-order rate constant that governs catalysis at low substrate concentration. For the protein B1, the turnover number (kcat) worked out at 3.63 s⁻¹ in data set [1]; 15 s⁻¹ in data set [2]; 19.05 s⁻¹ in data set [3]; 4.13 s⁻¹ in data set [4]; 0.883 s⁻¹ in data set [5]. The Michaelis constant (Km) worked out at 30 µM in data set [2], 41 µM in data set [3] and 90 µM in data set [4]. The kcat/Km in data set [2] came out at 500000 M⁻¹ s⁻¹; in data set [3], 467000 M⁻¹ s⁻¹; in data set [4], 50000 M⁻¹ s⁻¹.
